Target: HER2 (human (endogenous in BT-474, SK-BR-3, MDA-MB-361)) (UniProt P04626)
Assay: flow cytometry on cells; cell-based saturation assay: 3x10^5 BT-474 cells with increasing concentration of DyLight-488-labeled Affibody in PBS with 2% FBS, on ice, one hour; non-specific binding subtracted; three independent experiments

## Z_(HER2)-GS-Cys labeled with DyLight-488 (designed binder)
  Kd: 3.66 nM
